Measured values published in patent publication US20240425885.
Residue numbers refer to the chain shown, from its start.

Columns and labels:
Test in all cases: cleavage_in_vitro
[1] = test system: T1, OMNI-104 (metagenomic, unknown); settings: TXTL; PAM NRRRNYCN
T1 sequence: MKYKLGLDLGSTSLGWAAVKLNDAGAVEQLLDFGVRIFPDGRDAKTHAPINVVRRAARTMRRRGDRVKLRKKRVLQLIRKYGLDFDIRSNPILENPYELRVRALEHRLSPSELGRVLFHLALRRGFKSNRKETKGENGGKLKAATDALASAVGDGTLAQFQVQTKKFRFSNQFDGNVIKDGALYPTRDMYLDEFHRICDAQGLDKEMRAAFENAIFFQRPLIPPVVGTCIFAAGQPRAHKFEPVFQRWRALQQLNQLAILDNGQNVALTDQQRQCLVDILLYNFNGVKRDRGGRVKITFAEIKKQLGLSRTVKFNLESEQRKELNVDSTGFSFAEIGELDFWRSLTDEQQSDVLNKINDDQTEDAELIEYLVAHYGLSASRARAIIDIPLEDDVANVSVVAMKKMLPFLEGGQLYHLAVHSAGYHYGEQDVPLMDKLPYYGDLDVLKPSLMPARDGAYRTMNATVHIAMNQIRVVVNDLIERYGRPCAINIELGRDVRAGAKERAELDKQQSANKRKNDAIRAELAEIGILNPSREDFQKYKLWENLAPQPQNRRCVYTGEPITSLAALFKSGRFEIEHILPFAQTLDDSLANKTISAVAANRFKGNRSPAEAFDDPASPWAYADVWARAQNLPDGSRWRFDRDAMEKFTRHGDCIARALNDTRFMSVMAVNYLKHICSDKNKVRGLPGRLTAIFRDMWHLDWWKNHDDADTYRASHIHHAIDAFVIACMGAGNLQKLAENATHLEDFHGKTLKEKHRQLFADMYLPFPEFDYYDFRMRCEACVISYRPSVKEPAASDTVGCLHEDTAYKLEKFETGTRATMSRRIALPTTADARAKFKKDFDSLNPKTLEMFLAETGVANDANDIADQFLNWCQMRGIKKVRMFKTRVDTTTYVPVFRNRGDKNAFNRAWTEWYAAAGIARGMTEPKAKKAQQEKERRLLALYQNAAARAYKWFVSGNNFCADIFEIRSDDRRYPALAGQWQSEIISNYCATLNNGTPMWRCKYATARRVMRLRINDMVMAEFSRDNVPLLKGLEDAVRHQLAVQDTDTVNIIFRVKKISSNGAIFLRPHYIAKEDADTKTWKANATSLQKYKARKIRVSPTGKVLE

[2] = test system: T2, OMNI-105 (metagenomic, unknown); settings: TXTL; PAM NRRRNNNN
T2 sequence: T1 sequence with T1080P, K1084Q

[3] = test system: T3, OMNI-101 (metagenomic, unknown); settings: TXTL; PAM NRRRNNNN
T3 sequence: T1 sequence with A151T, K1084Q

[4] = test system: T4, OMNI-90 (metagenomic, unknown); settings: TXTL, PAM NNATTGYN
T4 sequence: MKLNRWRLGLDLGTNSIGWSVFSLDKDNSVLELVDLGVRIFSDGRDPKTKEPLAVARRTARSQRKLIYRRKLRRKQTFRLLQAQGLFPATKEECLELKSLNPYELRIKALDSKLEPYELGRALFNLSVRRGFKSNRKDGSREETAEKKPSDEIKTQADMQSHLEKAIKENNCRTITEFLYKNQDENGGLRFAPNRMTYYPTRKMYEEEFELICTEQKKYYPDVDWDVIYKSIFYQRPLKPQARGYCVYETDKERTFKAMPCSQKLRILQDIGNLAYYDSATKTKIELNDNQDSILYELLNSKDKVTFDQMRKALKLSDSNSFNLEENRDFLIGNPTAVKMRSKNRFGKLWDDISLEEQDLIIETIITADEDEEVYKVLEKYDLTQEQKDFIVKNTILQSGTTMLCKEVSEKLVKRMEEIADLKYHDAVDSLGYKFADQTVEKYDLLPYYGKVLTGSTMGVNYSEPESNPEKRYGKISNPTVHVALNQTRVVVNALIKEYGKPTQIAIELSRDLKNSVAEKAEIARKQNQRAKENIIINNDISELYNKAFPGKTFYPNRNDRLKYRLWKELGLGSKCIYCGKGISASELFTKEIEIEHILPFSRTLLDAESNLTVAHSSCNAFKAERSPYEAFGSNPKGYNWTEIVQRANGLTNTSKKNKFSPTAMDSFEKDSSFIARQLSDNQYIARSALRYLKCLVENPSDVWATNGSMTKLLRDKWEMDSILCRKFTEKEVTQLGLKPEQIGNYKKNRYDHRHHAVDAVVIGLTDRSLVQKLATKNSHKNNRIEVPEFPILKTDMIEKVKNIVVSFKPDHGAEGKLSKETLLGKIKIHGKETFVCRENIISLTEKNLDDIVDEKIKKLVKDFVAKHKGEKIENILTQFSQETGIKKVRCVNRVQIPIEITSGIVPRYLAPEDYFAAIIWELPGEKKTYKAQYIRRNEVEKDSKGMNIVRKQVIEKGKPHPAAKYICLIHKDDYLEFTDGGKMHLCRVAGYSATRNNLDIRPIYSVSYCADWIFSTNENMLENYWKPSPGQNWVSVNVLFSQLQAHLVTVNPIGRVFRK

Row | Sequence | activity (1-depletion score) [1] | activity (1-depletion score) [2] | activity (1-depletion score) [3] | further results
1 | GGAAGAGCAGAGCCUUGGUCUCGUUGCACCUAGACACCGAGAAAUCGGUGUCUUUGUGUUAAUAAGAACCUUUCUUUGGAAAGGAGUUCACCAUUUACAAACAGGCACUUCGGUGUCUGUUUUUU / GGAAGAGCAGAGCCTTGGTCTCNNNNNNNN / NNNNNNNNGAGACCAAGGCTCTGCTCTTCC [T2 sgRNA 13 V1 ; T2 protospacer + 8N PAM library (pbPOS T2)] | 0.92 | 1 | 0.98 | –
2 | GGAAGAGCAGAGCCUUGGUCUCGUUGCAGGUUGACCGGGAAAGCGGUCAACCUGCUAACAAGGAAACCUUUAGUUUCCGCAAUAUGCUUUAAUAUUCGUUGAGAUUAUUGCGUGAAUAUAGAUAGCACACAAUGCUUUUU / GGAAGAGCAGAGCCTTGGTCTCNNNNNNNN / NNNNNNNNGAGACCAAGGCTCTGCTCTTCC [T2 sgRNA 1 V3 ; T2 protospacer + 8N PAM library (pbPOS T2)] | – | – | – | activity (1-depletion score) ([4]; terminal hairpin deleted): 0.95
3 | GGAAGAGCAGAGCCUUGGUCUCGUUGCAGGUUGACCGGGAAAGCGGUCAACCUGCUAACAAGGAAACCUUUAGUUUCCGCAAUAUGCUUUAAUAUUCGUUGAGAUUAUUGCGUGAAUAUAGAUAGCACACAAUGCAAAGGGAAAGCUACGGCUUUCCCCCUUUUUUUU / GGAAGAGCAGAGCCTTGGTCTCNNNNNNNN / NNNNNNNNGAGACCAAGGCTCTGCTCTTCC [T2 sgRNA 1 V2 ; T2 protospacer + 8N PAM library (pbPOS T2)] | – | – | – | activity (1-depletion score) [4]: 0.94
4 | GGAAGAGCAGAGCCUUGGUCUCGUUGCAGGUUGACCGGGAAAGCGGUCAACCUGCUAACAAGGAAACCUUUAGUUUCCGCAAUAUGCUUUAAUAUUCGUUGAGAUUAUUGCGUGAAUAUAGAUUUUU / GGAAGAGCAGAGCCTTGGTCTCNNNNNNNN / NNNNNNNNGAGACCAAGGCTCTGCTCTTCC [T2 sgRNA 1 V4 ; T2 protospacer + 8N PAM library (pbPOS T2)] | – | – | – | activity (1-depletion score) ([4]; two last hairpins deleted): 0.96
5 | GGAAGAGCAGAGCCUUGGUCUCGUUGCAGGUUGACCGGGAAAGCGGUCAACCUGCUAACAAGGAAACCUUUAGUUUCCGCAAAAUGCUUUUAUAUUCGUUGAGAUUUUUGCGUGAAUAUAGAUAGCACACAAUGCAAAGGGAAAGCUACGGCUUUCCCCCUUUUUUUU / GGAAGAGCAGAGCCTTGGTCTCNNNNNNNN / NNNNNNNNGAGACCAAGGCTCTGCTCTTCC [T2 sgRNA 1 V1 ; T2 protospacer + 8N PAM library (pbPOS T2)] | – | – | – | activity (1-depletion score) [4]: 0.95
6 | GGAAGAGCAGAGCCUUGGUCUCGUUGCACCUAGACGAAAGUCUUUGUGUUAAUAAGAACCUUUCUUUGGAAAGGAGUUCACCAUUUACAAACAGGCACUUCGGUGUCUGUUUUUU / GGAAGAGCAGAGCCTTGGTCTCNNNNNNNN / NNNNNNNNGAGACCAAGGCTCTGCTCTTCC [T2 sgRNA 11 V1 ; T2 protospacer + 8N PAM library (pbPOS T2)] | 1 | 0.98 | 0.96 | –
7 | GGAAGAGCAGAGCCUUGGUCUCGUUGCACCUAGACACCGAAAGGUGUCUUUGUGUUAAUAAGAACCUUUCUUUGGAAAGGAGUUCACCAUUUACAAACAGGCACUUCGGUGUCUGUUUUUUU / GGAAGAGCAGAGCCTTGGTCTCNNNNNNNN / NNNNNNNNGAGACCAAGGCTCTGCTCTTCC [T2 sgRNA 14 V1 ; T2 protospacer + 8N PAM library (pbPOS T2)] | 0.98 | 0.94 | 0.97 | –
